This is an account of results in the DeepSol protein solubility set.

The data set is described as follows: soluble on expression in E. coli; label from the status in PepcDB or PDB records.
With “MGSDKIHHHHHHMAVTVENLTKRYGEKVALDNVSFDVKKGDILGIIGKSGAGKTTLIKILRGVESFDEGKIEVCGKTENLREITAIHLQRNFALWAEPAIYNIIRKLYAVRTDSDEGLPLEEEMEEYRKDATEILKLVGLEHKKDAYSNILSGGEKQRLILGRQLAKIYAKNGDGVLLLDEPATMACPASKQILLDVLKNINEKLGVTIIVTSHLPEIHKYLCKSCILIENGKIIMKDTPEKVVDEFLKDMVEAYDRLSKPTDKTVVEVEDASKRYYVVNGGETLNLKDISFKVKEKEILSILGPSGTGKSVILRLLAGLEAPDKGVVKLEGIDLKDFGWNRMNLRRKIGIMHQEFSLAHYLTVNELLKYRLGVKSIETVESAKLKAAELGISPKMVDGLYQLLDLPETEMRNKLDKIGISEMVVRKLFPAKPVEYDANELLEALDLNKETLNKKPTELSGGEKVRVAMALQLALEPDILLLDEPFGDLDPLTLREVSNYLKKINDTVGTTIILISHHVELIKEISDRAILIDEGKLLMNGNPEEICEKFIERSNSKFMNQ”, the “soluble on expression in E. coli” value is on record as “not soluble”.
On to “MGHHHHHHSHKHPFIVELAYAFQTGGKLYLILECLSGGELFTHLEREGIFLEDTACFYLAEITLALGHLHSQGIIYRDLKPENIMLSSQGHIKLTDFGLCKESIHEGAVTHTFCGTIEYMAPEILVRSGHNRAVDWWSLGALMYDMLTGSPPFTAENRKKTMDKIIRGKLALPPYLTPDARDLVKKFLKRNP”, for which the “soluble on expression in E. coli” value is listed as “not soluble”.
Then “MTAKTLIVLIGPTGVGKTELSLRIAEYFKTSIISSDSRQLYAELKIGTAAPTPEQLKRVPHYFVGTLQLTDYYSAAQYETEVMSVLEQLFQQHHVVLLTGGSMMYVDAICKGIDDIPTVDAETRELLLHKYDTEGLDNLCAELKLLDPEYYKIVDLKNPKRVIHALEICYMTGKTYTSFRTQQKKERPFHILKIGLTRDRAELYDRINRRVDQMMDEGLLEEARSVYAHRELNSLNTVGYKEIFKYLDGEWDLDFAIEKIKQNSRIYSRKQMTWFKRDEEIRWFHPEQEKEILSYLQASIKLEHHHHHH”, with “soluble”; and “MFKFHLITKDGKARRGRIYTPHGVIETPVFMPVGTQGTVKAMLHKLLDEIGTQIILGNTYHLYLRPGTEIIKKAGGLHRFISWNKPILTDSGGYQVFSLAKGKFGNRKAKVKVSDEGVEFQDHLQGDKHFFTPEKVVEIQEIFGSDIMMPLDECVEYPVDKNYAEKALKRTINWLERSIKAKKREDQVLFGIVQGAFWKDLRKKAVEETLKFDEFLFGYSIGGLSVGEPKEIMYGMTEVVCELLPEKKPRYLMGVGKPEDILEAVERGVDMFDCVVPTRNARTGTLYTSQGVVDIRHSKWKEDFSPLDPECDCYTCRNFSKAYLRHLFVAEEISAYVLNTIHNLRFYLKMMEEVRKAIEEKRFKELKEKYLQRVKNKL”, with “soluble”; and “MSLDVAIGEVLAEVAAQEGDRLALVEVVPNGMDSPVGAASTSRRWTYAQLNDDARRCASWLLTQFKTGDHICVWAPNVPEWIVLQYGAALSGLVLVTANPALKASELEFVLQQSQSVALFHLDAFRGVETGAVARSFASAKLRCISFSGWLAEIRRTEIGALPRIDPGQPAQIQYTSGTTGRPKGALLHHRGLITNASYVAARAGLDHSVLLSPMPLFHTAGSIMSVLGCLNSRSTLVLPLLFDPGTVLDAIAHTRADTLFGVPTMLLAVIDAQLQAPRDLSSLRVAASGGAQVPPELHRRIHDALKLPLLTVFGQTELSPIVSQTCIDDPDEQRIHSVGRPLWNVEVRIVDPNGDRVVVIGVEGEIQVRGYQTMLGYFNAPKETSETITADGWLRTGDLGAMDEAGYLRITGRLKDMIIRGGENIYPAEVEACLLRHPAVADISVFGAPDDKWGEVVAAAVRLVPDVPVTATELSAFCKTEIAPHKAPTVWYACTGFPLTASGKIQKFRLRDAAVEGELQRLSEGHHHHHH”, with “soluble”.
Then “MLNVESHVLRYWEEELEIKIPRNEMGHRYYTEDNIESLRKVRDLKKQGYSLKAIKNMVNPKKATRENKESNERLTVRQPISLMEVREKKVGVENCYQEVPEAMSGSVQSVVQNMTQSNGQNAESAGLKLEQFQNLMNKVVSKALKESTTNLGKELSDNVSENVLKGMNYMMRVQDEKEEERYRKLDELMRNKQKLSRREKRKKAKAEKLLLKNKKKGMAHFGKKPQTT”, with “not soluble”; and “MRRLLTLWVLGLGALAQVPVGQVATRDVHALLWLPDGRLLFGHHDGLQVSEDEGRTWRDLVRKTGFDAMEHSFWRGDRLLAAEHWVLSESRDGGKTWRSFRPRGLPALDLHGYAASGGLHFALEATHGYFVSEDGGKTFKSTAPKGLPKAGMAAMVFQGKTLYVAPMGQGLYQSSDGGRTFTQVPTPEREIYALATGAGTLYLGGKTGLWQRTPAGWKRLWQGAVLALAAHPQEAGRLVFIDGQERVWKLP”, with “soluble”; and “MSKLVVIGGGPAGYVAAITAAQNGKNVTLIDEADLGGTCLNVGCMPTKSLLESAEVHDIVRKSNHYGVTLNNGSISIDWKQMQVRKSQIVTQLVQGIQYLMKKNKIKVIQGKAKFETDHRVRVTYGDKEIVVDGEQFIIATGSEPTELPFAPFDGKWILNSTHAMSLKNIPKSLLIVGGGVIGCEFASIYSRLGTKVTIVEMAPQLLPGEDEDIAHILRGKLENDGVKIFTGATLKGLNSYKKQALFEYEGGIQEVNPEFVLVSVGRKPRVQQLNLEKAGIQYSNKGISVNEHMQTNVSHIYAAGDVIGGIQLAHVAFHEGTTAALYASGEDVKVNYHAVPRCIYTAPEIASVGLTEKDAKEQYGDIQIGEFPFTANGKALIIGEQTGKVKVIVEPKYQEIVGISIIGPRATELIGQGTVMIHTEVTADIMRDYIAAHPTLSESIHEALLQAVGHAVHA”, with “not soluble”.
Consider “MSEIKQLPTRDEVPTPLTWDLTKIFKDDAAFDVAYNQLIEELNQAESFKGTLGDGAEAFLAALEYVLDVYRKVETLYVYSHLKNDQDTTNTAYQALYARASSLYAQVSEAVSWFDPEVLTLSDEQIWGYFEEQPKLAVYRHYIQNILDERPHVLSMEQEALLAGASEIFGASSNTFSILNNADLEFPTVQNAEGETIQLSHGVYGQLMESVDPSVREAAFKGLYKVYKQFRNTLASTLGAHVKTHNYKAKIRNYDSARAASLASNHIPESVHETLVAVVNKHLPLLHRYVKLRKKLLNVEELHMYDLYAPLLGEAPIRYSYEEAKEKAIEALKPLGEDYLSIVKEAFSSRWIDVIENQGKRSGAYSSGAYDTAPYILMNWHDSLDQLFTLVHEMGHSVHSYYTRNNQPYVYGDYSIFLAEIASTTNENILTEYLLQTETDPKVRAYVLNHYLDGFKGTIFRQTQFAEFEHFIHTEDAKGTPLTSEYLSEYYGELNAKYYGPEVVRDEEISYEWARIPHFYYNYYVYQYATGFSAASALSKHILAGEEGALENYLNYLKAGSSDFPIEVMKKAGVDMTQAAYIEDAMKVFEERLTELEALVEKL”, for which the “soluble on expression in E. coli” value is “not soluble”.
On to “MDLLERLGLGGRRVLILHHDDLGLTHAQNGAYQALGLPTGSVMVPGAWASGVKGEDLGVHLVLTSEWPAPRMRPLTEGESLRDEAGYFPESLEALWRKARAEEVERELKAQIQAAAKLFSPTHLDAHQGAVLRPDLAEVYLRLAEAYRLVPLVPESLEGLGVPPPFLPELERLLYETPFPQVRFLDPYGLPPEERLGFYLDLAHLPPGLYYLVHHSALPTPEGRALPDWPTREADYFALSHPEVRRVLAEFHPLTWRAVREALF”, for which the “soluble on expression in E. coli” value is reported as “soluble”.
To “QNLPQGDLMQHGMMAVKAATLSDAEVRQVADQACAESDQQNRIAPANSKYGQRLDKIAKALGDQIDGVPVNYKVYLTEEVNAWAMANGCIRVYSGLMELMSDNEIEGVLGHEMGHVALGHTRKAAQTAYAAAAVRGAAGASKSGALAALSGSQLGELTESLVNAQFSQSQESDADDFSYELLKKRGVNTQGLVTAFEKLAKLGGGDSSMFDSHPGSQARADHIRQRIAADR” belongs “not soluble”; to “MSGLKPVKPEGVQSEFSVRVAKRSDDIRYSVMMFNGMDKVDTSKWTIDSGVTMEREDNQRVILSTQTVQEYGEGSEYGKAAREEARRKKYGRQSKKYRLDNQPWKMAFTEPEGRQRQMRGIREGGANEHADYWVFLKPNQSSEFKAYKVDEWHKFLPAITHKTLDIDQAEEQFSQRYKVMNQFALKAAIQNQLSATDESEMTEQQKRLLKIKDEASSDDSDGDDEGEGGDDGKKAKNKKKKKKNAKPAKEKRQRVEDKDDVAKYESSDGEDEGREYDYISDSGTDSDREQVPSDEKIEKQLVGVAEEEGARESDSSESEDDLTKKLMKPYGDKKKGNDIEERDSSGTDSDVSDTEKLDSVVFMKANKDGEGGSGGTGKKRPPTEDSDLKMDNLGPSDAKKAKPAVKFEEGLNEETVRRYLRRKPHTTKELLHKMNGKCGNMSKSEMVTQLASILKAIEPNQSRQLKGKKEVLFFSLVNTIA”, “not soluble”.
